Source: patent US20140017168A1 (published 2014)
*: point of attachment. NOTA = O=C(O)CN1CCN(CC(=O)O)CCN(CC(=O)*)CC1; Aoc = NCCCCCCCC(=O)O

Assays:
[1] = molecular target: T1, gastrin-releasing peptide receptor on PC-3 cells (UniProt P30550 1-384, limits assumed); assay: competition with 125I-BBN on PC-3 cells, inhibitor 250 to 2 nM
T1 construct: whole, on cells
Procedure: (§1) A NOTA-conjugated bombesin derivative (IMP468) was prepared as described above. […] Our initial experiment was to determine if IMP468 could specifically block bombesin from binding to PC-3 cells. We used IMP333 as a non-specific control. […] A range of 56 to 0.44 nM was used as our inhibitory concentrations.
This experiment was repeated using a commercially available BBN peptide. We increased the amount of inhibitory peptide from 250 to 2 nM to block the ¹²⁵I-BBN from binding to PC-3 cells.

[2] = molecular target: T1, gastrin-releasing peptide receptor on …; assay: competition with 125I-bombesin on 3x10^6 PC-3 cells, inhibitor 56 to 0.44 nM
Procedure: as §1

T1 sequence (P30550 whole entry): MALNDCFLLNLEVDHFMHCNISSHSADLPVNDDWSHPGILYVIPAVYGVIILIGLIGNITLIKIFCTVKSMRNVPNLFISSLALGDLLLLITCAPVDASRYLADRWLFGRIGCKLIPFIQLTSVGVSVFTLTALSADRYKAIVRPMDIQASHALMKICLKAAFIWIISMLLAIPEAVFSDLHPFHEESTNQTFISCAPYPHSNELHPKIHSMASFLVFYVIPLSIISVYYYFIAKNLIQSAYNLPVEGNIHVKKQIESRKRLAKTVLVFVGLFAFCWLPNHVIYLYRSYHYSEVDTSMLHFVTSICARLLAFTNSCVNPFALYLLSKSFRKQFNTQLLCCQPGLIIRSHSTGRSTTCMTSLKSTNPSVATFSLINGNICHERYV

B1: IMP468 (NOTA-NH-(CH2)7CO-Gln-Trp-Val-Trp-Ala-Val-Gly-His-Leu-Met-NH2) (peptide)
peptide: {NOTA-Aoc}-QWVWAVGHLM-NH2
SMILES: CSCC[C@H](NC(=O)[C@H](CC(C)C)NC(=O)[C@H](Cc1c[nH]cn1)NC(=O)CNC(=O)[C@@H](NC(=O)[C@H](C)NC(=O)[C@H](Cc1c[nH]c2ccccc12)NC(=O)[C@@H](NC(=O)[C@H](Cc1c[nH]c2ccccc12)NC(=O)[C@H](CCC(N)=O)NC(=O)CCCCCCCNC(=O)CN1CCN(CC(=O)O)CCN(CC(=O)O)CC1)C(C)C)C(C)C)C(N)=O
notes: also called NOTA-conjugated bombesin derivative; bombesin analogue
Work on B1 yielded an IC50 [1] of 35.9 nM and an IC50 [2] of 21.5 nM.
